# Target: Lys65 (UniProt position 65, ICSVSKQFTCA)
# Test: kinetics
# Conditions: 25 °C, not stated (0.1 M Tris-HCl buffer), Free enzyme (Vmax/KM profile) with D-Ala-pNA as substrate
substance,measurement,value
D-aminopeptidase (DAP) (Ochrobactrum anthropi),pKa,7.4
